# Source: US8466107B2, “Fibrin-binding peptides and conjugates thereof” (Bracco Imaging SpA, priority 2006, dated 2013)
# Bridge positions count the residues as written; N and C are the ends.
# Molecular target: T1, human clots (Homo sapiens, UniProt P02671+P02675+P02679)
# T1 construct: Small plasma clots from different species (human, guinea pig and mouse); tissue Dade Behring; host or cells: pooled human plasma (Control Plasma N), clotted with Pathromtin SL and CaCl2
# T1 sequence (P02671 36-629 limits assumed): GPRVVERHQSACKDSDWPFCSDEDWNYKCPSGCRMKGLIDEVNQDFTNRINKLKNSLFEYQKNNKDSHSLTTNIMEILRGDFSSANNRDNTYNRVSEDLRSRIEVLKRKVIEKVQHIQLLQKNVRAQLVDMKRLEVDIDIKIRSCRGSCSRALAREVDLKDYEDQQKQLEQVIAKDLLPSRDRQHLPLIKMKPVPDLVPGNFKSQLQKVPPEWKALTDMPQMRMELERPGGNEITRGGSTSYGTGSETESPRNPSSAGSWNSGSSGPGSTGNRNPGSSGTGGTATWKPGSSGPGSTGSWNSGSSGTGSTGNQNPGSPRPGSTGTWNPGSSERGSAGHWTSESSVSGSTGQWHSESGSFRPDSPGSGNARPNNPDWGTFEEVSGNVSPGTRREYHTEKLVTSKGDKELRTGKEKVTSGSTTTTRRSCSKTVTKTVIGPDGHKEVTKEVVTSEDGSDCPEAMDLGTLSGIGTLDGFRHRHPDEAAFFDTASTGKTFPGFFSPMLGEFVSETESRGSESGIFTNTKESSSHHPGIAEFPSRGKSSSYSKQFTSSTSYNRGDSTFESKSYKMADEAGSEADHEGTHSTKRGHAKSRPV
# T1 sequence (P02675 45-491 limits assumed): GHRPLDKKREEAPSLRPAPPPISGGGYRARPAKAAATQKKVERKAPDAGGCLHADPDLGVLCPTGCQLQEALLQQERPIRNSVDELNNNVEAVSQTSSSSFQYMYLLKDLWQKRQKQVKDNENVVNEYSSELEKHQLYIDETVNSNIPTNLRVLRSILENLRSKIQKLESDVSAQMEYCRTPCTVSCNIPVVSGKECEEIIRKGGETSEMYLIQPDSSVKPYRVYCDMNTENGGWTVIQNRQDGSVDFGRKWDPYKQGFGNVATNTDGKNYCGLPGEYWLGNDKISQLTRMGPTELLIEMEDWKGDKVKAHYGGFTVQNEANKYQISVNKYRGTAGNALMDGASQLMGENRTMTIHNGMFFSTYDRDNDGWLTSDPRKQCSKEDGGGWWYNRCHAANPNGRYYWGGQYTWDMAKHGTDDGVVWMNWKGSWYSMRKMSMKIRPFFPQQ
# T1 sequence (P02679 27-437 isoform P02679-2 limits assumed): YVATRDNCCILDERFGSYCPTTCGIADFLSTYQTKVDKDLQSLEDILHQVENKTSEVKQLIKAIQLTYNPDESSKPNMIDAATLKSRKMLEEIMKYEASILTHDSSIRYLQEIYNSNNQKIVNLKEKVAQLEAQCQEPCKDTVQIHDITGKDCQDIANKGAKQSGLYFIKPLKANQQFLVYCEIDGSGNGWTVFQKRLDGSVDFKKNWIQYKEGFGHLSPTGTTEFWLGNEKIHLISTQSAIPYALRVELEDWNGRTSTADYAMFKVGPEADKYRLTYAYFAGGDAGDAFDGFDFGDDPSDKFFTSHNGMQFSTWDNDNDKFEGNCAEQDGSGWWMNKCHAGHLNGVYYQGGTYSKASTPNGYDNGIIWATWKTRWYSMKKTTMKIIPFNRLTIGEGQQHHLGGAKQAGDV
# Experiment: In vitro MRI test of signal enhancement in plasma clots incubated with contrast agents
# Format: binding
# Description: Small plasma clots from different species (human, guinea pig and mouse) ranging from 0.5-7 mm in diameter were formed by combining citrate plasma (1:3,v/v) phospholipids (Reagent Pathromtin) and CaCl2 0.008 M (Dade Behring, Germany) into small 2 ml vials at 37° C. Clots were washed 3 times with TBS 1× and incubated with contrast agents at 100 μM for 30 minutes at 37° C. Two clots were prepared for each solution of incubation. After the incubation clots were washed 4 times with TBS 1× and placed into small vials filled with TBS 1× for MRI analysis. T1-weighted 2D Spin-Echo (SE) images were acquired with the following parameters: TR/TE=400/8 ms, spatial resolution=344 μm and slice thickness=2 mm. Maximum signal intensity was measured in each image containing clot and compared to the signal from a clots incubated in TBS. […]
# This protocol has been developed and used to test the specificity and efficiency of the fibrin targeted contrast agents of the invention for sensitive detection of thrombus by use of MRI. […] Signal enhancement from each sample incubated with the fibrin targeted contrast agent was evaluated and compared to a standard contrast agent ProHance®. […]
# High resolution MRI was then performed by using T1-weighted Spin-Echo (SE) sequences. T1 maps were also calculated from the acquisition of 2D gradient echo images or inversion recovery spin echo images. […]
substance,measurement,setting,value
Chelated Complex 1: Gd chelated complex (four DTPA-Glu units on branched lysine linker) conjugated to the fibrin-binding peptide; MRI contrast agent (Ac-WQPCPAESWTFCWDPGGGK-NH2; disulfide 4-12; not fully specified (some residues); also: further groups not given here),Max signal Enhancement at 100 μM,"human clots incubated with 100 μM complex, 30 minutes at 37° C., T1-weighted spin-echo MRI at 2T",100%
same,"signal enhancement in clots, ranking of tested compounds","human clots, 100 μM concentration",maximum signal enhancement
